{"source": "paper PMC4333373", "about": "“Specific and non-specific interactions of ParB with DNA: implications for chromosome segregation” (Nucleic Acids Research, 2015)", "proteins": {"B1": {"name": "Bacillus subtilis ParB (natural protein, UniProt P26497 1-282, looked up)", "chain": "MAKGLGKGINALFNQVDLSEETVEEIKIADLRPNPYQPRKHFDDEALAELKESVLQHGILQPLIVRKSLKGYDIVAGERRFRAAKLAGLDTVPAIVRELSEALMREIALLENLQREDLSPLEEAQAYDSLLKHLDLTQEQLAKRLGKSRPHIANHLRLLTLPENIQQLIAEGTLSMGHGRTLLGLKNKNKLEPLVQKVIAEQLNVRQLEQLIQQLNQNVPRETKKKEPVKDAVLKERESYLQNYFGTTVNIKRQKKKGKIEIEFFSNEDLDRILELLSERES", "notes": "ParB (Spo0J) of Bacillus subtilis 168; the parB gene was amplified from genomic DNA and cloned into pET28a(+); native (untagged) protein; intact monomer has a theoretical weight of 32.2 kDa; Untagged; also called Spo0J; ParB2 (the dimer); source: E. coli BL21 (DE3), pET28a-ParB, purified (ammonium sulphate cuts, HiTrap Heparin, Mono S; some preparations also Superdex S75)"}}, "biological_target": "the molecule itself", "test": "SEC-MALS; ParB alone, no DNA; 9 or 80 uM ParB2; Superdex 200 in 50 mM Hepes-KOH, 150 mM KCl, 2.5 mM MgCl2, 2 mM beta-mercaptoethanol; monomer and dimer"}
{"protein": "B1", "values": [{"measurement": "stoichiometry N", "value": 2}]}
